Experimental findings from patent publication US20100092465A1, “TREATMENT OF GRAFT-VERSUS-HOST DISEASE” (priority 2006, published 2010) are described below.

For experiment [1], the target named is single-chain human IL-27 (amino-terminal peptide tag, EBI3, polypeptide linker, IL-27 p28) (human) (UniProt Q14213). In words: cell-based or functional assay.
The target of experiment [2] is single-chain mouse IL-27 (FLAG tag, mouse EBI3, 17 amino acid linker, mouse IL-27 p28) (mouse) (UniProt O35228). In words: cell-based or functional assay.
For experiment [3] the target is unchanged. The experiment is described as follows: SPR, BIACORE 3000; receptor amine-coupled to the chip, ligand (A1426F) injected; 1:1 model with mass transport. A general note: SPR reads the build-up and loss of mass on a sensor chip optically.
The target of experiment [4] is single-chain human IL-27 (amino-terminal peptide tag, EBI3, polypeptide linker, IL-27 p28) (human) (UniProt Q14213). In words: SPR, BIACORE 3000; receptor amine-coupled to the chip, ligand (A1534F) injected; 1:1 model with mass transport.
Experiment [5] addresses IL-27 receptor on total human PBMCs (human) (UniProt Q6UWB1). The experiment is described as follows: cell-based or functional assay.
Experiment [6] has as its target IL-27 receptor on mouse spleen cells (mouse) (UniProt O70394). The experiment is described as follows: cell-based or functional assay.
The target in experiment [7] is single-chain mouse IL-27 (FLAG tag, mouse EBI3, 17 amino acid linker, mouse IL-27 p28) (mouse) (UniProt O35228). In words: SPR, BIACORE 3000; receptor captured by anti-mouse Fc antibody, ligand (lot A1418F) injected; 1:1 model with mass transport.
Experiment [8] deals with IL-27 receptor (IL-27RA and gp130) on BHK-mIL-27R cells (mouse) (UniProt O70394). In words: saturation binding of 125I-labeled ligand to BHK-mIL-27R cells, 4 hours on ice, gamma counter.
Experiment [9] shares this target. In words: saturation binding of 125I-labeled ligand to BHK-mIL-27R cells; average of three studies.

“And” between values parts separate entries of the source, which are not always exact repeats. Equal entries are not always repeated.

IL-27 receptor on total human PBMCs (human), sequence (Q6UWB1 33-636, chain 1 of 2): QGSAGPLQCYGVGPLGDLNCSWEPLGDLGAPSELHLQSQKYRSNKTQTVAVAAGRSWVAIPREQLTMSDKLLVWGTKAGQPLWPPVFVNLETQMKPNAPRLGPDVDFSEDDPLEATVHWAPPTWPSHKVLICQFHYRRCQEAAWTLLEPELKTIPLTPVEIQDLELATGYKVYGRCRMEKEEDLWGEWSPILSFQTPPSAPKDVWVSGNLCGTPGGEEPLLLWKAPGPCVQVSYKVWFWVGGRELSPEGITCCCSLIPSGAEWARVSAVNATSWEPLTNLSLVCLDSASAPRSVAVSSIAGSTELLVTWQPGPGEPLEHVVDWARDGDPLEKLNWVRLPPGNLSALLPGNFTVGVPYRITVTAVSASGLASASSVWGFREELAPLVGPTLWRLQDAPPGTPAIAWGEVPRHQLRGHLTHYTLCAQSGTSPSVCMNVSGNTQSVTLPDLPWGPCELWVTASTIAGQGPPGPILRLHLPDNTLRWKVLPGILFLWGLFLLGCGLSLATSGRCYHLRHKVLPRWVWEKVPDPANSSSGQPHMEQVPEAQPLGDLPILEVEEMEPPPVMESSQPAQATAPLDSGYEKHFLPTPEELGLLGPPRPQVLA
IL-27 receptor on total human PBMCs (human), sequence (P40189 23-918, chain 2 of 2, further chain): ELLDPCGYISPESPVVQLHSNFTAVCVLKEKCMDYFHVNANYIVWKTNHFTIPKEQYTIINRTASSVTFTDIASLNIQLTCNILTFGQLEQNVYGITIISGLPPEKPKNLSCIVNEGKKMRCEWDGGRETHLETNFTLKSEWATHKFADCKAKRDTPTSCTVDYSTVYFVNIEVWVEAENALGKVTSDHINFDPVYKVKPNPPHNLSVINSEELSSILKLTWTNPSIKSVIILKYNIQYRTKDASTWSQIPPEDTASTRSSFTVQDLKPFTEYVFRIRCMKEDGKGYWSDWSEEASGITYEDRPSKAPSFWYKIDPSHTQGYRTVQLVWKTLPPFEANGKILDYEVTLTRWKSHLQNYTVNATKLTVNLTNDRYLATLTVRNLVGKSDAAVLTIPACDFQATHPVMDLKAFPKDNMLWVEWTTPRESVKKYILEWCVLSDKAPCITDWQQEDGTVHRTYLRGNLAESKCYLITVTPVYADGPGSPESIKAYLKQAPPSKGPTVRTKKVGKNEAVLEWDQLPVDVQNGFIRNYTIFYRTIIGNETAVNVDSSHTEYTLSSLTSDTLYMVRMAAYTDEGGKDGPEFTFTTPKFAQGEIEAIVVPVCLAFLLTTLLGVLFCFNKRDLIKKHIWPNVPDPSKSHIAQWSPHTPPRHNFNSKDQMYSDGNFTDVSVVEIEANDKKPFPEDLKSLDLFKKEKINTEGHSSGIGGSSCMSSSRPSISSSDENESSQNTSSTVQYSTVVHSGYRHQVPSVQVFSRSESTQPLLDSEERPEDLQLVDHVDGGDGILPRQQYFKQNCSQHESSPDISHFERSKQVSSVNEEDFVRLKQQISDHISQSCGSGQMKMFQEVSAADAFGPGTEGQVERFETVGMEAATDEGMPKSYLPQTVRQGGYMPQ
IL-27 receptor on mouse spleen cells (mouse), sequence (O70394 25-623, chain 1 of 2): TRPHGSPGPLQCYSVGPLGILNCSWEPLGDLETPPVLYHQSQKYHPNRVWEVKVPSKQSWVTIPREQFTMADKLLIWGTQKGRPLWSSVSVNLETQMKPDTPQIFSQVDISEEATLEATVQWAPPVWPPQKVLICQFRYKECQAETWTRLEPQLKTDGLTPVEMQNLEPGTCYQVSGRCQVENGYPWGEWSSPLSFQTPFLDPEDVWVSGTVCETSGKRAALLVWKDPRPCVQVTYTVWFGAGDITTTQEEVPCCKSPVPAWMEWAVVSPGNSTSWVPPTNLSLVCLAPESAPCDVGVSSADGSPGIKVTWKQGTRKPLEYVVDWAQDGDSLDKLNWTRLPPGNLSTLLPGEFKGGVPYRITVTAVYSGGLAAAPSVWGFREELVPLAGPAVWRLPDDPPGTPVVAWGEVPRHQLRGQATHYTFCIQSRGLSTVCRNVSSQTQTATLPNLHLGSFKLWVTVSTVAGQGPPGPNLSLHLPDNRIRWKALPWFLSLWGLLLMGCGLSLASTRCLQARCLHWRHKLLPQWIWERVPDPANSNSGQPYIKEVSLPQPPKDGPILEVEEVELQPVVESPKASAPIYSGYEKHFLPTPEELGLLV
IL-27 receptor on mouse spleen cells (mouse), sequence (Q00560 23-917, chain 2 of 2, further chain): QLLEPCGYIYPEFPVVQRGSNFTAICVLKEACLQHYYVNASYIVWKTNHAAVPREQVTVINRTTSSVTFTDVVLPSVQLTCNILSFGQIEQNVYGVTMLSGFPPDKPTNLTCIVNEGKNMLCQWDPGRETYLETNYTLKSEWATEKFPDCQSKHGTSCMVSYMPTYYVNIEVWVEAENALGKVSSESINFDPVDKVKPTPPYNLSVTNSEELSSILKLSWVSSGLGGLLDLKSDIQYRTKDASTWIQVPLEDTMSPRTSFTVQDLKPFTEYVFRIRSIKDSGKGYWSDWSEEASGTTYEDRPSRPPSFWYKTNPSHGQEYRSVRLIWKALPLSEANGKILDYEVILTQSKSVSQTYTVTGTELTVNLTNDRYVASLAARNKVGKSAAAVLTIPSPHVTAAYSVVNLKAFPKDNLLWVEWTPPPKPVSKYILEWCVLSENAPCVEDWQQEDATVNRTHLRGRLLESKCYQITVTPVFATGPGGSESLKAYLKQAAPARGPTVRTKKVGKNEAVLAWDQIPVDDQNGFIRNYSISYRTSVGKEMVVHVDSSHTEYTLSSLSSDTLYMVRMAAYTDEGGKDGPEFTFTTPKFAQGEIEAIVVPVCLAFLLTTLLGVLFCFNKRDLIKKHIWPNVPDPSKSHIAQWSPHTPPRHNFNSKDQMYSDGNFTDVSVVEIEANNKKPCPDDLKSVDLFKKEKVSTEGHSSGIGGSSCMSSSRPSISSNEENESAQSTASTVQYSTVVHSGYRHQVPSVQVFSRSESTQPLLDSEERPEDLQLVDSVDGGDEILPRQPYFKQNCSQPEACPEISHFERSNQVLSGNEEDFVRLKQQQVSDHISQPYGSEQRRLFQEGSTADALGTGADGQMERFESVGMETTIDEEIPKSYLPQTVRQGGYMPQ

For the substance “human IL27RA-Fc5 fusion protein (Fc fusion)”, in experiment [1], the IC50 (nM), phospho-STAT3 in mouse spleens, ligand at EC90 was 0.32 nM and the IC50 (nM), phospho-STAT3 in total human PBMCs, ligand at EC90 was determined as 0.95 nM. In experiment [2], the IC50 (nM), phospho-STAT3 in mouse spleens, ligand at EC90 was 0.14 nM; the IC50 (nM), phospho-STAT3 in total human PBMCs, ligand at EC90 came out at 2.97 nM; the IL-2 concentration, 48 hr, hIL-27RA 5 ug/ml + IL-27 is 5780 pg/mL; the IL-2 concentration, 48 hr, hIL-27RA 10 ug/ml + IL-27 was found to be 5770 pg/mL. In experiment [2], the IL-2 concentration, 48 hr, hIL-27RA 10 ug/ml + IL-27 (second row) is 5330 pg/mL; the IL-2 concentration, 72 hr, hIL-27RA 5 ug/ml + IL-27 was 1870 pg/mL; the IL-2 concentration, 72 hr, hIL-27RA 10 ug/ml + IL-27 was determined as 28600 pg/mL; the IL-2 concentration, 72 hr, hIL-27RA 10 ug/ml + IL-27 (second row) amounted to 17500 pg/mL. Also, the block of the ability of mouse IL-27 to inhibit IL-2 production by naive CD4 T cells in experiment [2] was 50%. In experiment [3], this substance registered a koff of 0.0018 s⁻¹ and a kon of 8.1e+06 M⁻¹ s⁻¹. In experiment [4], this substance returned a koff of 0.0019 s⁻¹ and an on-rate constant (kon) of 1e+07 M⁻¹ s⁻¹.

On to “single-chain human IL-27 (amino-terminal peptide tag, EBI3, polypeptide linker, IL-27 p28) (from UniProt Q14213 21-229; Q8NEV9 29-243) (ligand)”, for which the EC90 concentration, STAT3 phosphorylation (BIO-PLEX Phospho-Stat3 assay), total human PBMCs in [5] turned out to be 2 nM. This substance came in with an EC90 concentration, STAT3 phosphorylation (BIO-PLEX Phospho-Stat3 assay), mouse spleens in experiment [6] of 2 nM.

Turning to “IL27RAm(mFc1): extracellular domain of mouse IL27RA fused to a wild type BALB/c mouse gamma2a constant region Fc tag (from UniProt O70394 25-510) (Fc fusion)”, in [1], the IC50 (nM), phospho-STAT3 in mouse spleens, ligand at EC90 is 9.3 nM and the IC50 (nM), phospho-STAT3 in total human PBMCs, ligand at EC90 came to 1370 nM. In experiment [2], the IC50 (nM), phospho-STAT3 in mouse spleens, ligand at EC90 came out at 0.18 nM; the IC50 (nM), phospho-STAT3 in total human PBMCs, ligand at EC90 worked out at 4.83 nM; the IL-2 concentration, 48 hr, mIL-27RA 5 ug/ml + IL-27 is 4020 pg/mL; the IL-2 concentration, 48 hr, mIL-27RA 10 ug/ml + IL-27 worked out at 5220 pg/mL. In addition, in experiment [2], the IL-2 concentration, 48 hr, mIL-27RA 10 ug/ml + IL-27 (second row) is 4920 pg/mL; the IL-2 concentration, 72 hr, mIL-27RA 5 ug/ml + IL-27 stood at 5740 pg/mL; the IL-2 concentration, 72 hr, mIL-27RA 10 ug/ml + IL-27 turned out to be 6700 pg/mL; the IL-2 concentration, 72 hr, mIL-27RA 10 ug/ml + IL-27 (second row) was 12200 pg/mL. The same substance registered a block of the ability of mouse IL-27 to inhibit IL-2 production by naive CD4 T cells in experiment [2] of 50%. In experiment [7], this substance had a koff of 0.0012 s⁻¹ and a kon of 1e+07 M⁻¹ s⁻¹.

With “single-chain mouse IL-27 (FLAG tag, mouse EBI3, 17 amino acid linker, mouse IL-27 p28) (from UniProt O35228 19-228; Q8K3I6 29-234) (ligand)”, the Kd in experiment [8] was 0.9 nM and 1.35 nM and 1.16 nM; in experiment [9], 1.14 nM. For the same substance, the EC90 concentration, STAT3 phosphorylation (BIO-PLEX Phospho-Stat3 assay), total human PBMCs in experiment [5] amounted to 2 nM. In [6], the EC90 concentration, STAT3 phosphorylation (BIO-PLEX Phospho-Stat3 assay), mouse spleens amounted to 0.2 nM.

In general, koff refers to the rate constant with which the complex falls apart. Low readings indicate a long-lived complex, high ones a short-lived complex. One may read the kon as the rate constant with which the complex forms. The low end stands for slower complex formation, the high end for faster complex formation. In general, Kd refers to the equilibrium constant for the complex coming apart. A higher Kd goes with weaker binding.
